Test results: patent publication US20230242616A1 (LUDWIG MAXIMILIANS UNIVERSIT T M NCHEN, published 2023)
Where no end group is shown, it is not given here.

B1: msR4M-LK3 ([ECL1(102-110)]-K-K-K-[ECL2(187-195)]) (designed binder)
peptide: WYFGNFLCKKKKDRFYPNDLW-NH2
modifications: not fully specified; printed as WYFGNFLCK-KKK-DRFYPNDLW
notes: also called ngm-LK3; msR4M-K3
B2: ECL2(187-195) (peptide)
peptide: DRFYPNDLW-NH2
B3: msR4M-LR3 ([ECL1(102-110)]-R-R-R-[ECL2(187-195)]) (designed binder)
peptide: WYFGNFLCKRRRDRFYPNDLW-NH2
modifications: not fully specified; printed as WYFGNFLCK-RRR-DRFYPNDLW
notes: also called ngm-LR3; msR4M-R3
B4: ECL2 fragment 185-195 (peptide)
peptide: ICDRFYPNDLW-NH2
B5: ECL1 fragment 101-110 (peptide)
peptide: NWYFGNFLCK-NH2
B6: ECL1 fragment 100-110 (peptide)
peptide: ANWYFGNFLCK-NH2
B7: ECL1(102-110) (peptide)
peptide: WYFGNFLCK-NH2
B8: msR4M-LD3 ([ECL1(102-110)]-D-D-D-[ECL2(187-195)]) (designed binder)
peptide: WYFGNFLCKDDDDRFYPNDLW-NH2
modifications: not fully specified; printed as WYFGNFLCK-DDD-DRFYPNDLW
notes: also called ngm-LD3; msR4M-D3

Key:
[1] = target: T1, human macrophage migration-inhibitory factor (MIF) (human, UniProt P14174 2-115, limits assumed, Alexa-Fluor 488 or Monolith NT-647 (MST-Red) label where so named); assay: fluorescence spectroscopic titration; row labelled msR4M-L5 but with the K-K-K linker
T1 construct: Biologically active recombinant MIF prepared as reported previously; also called Alexa-MIF; Alexa-488-MIF
T1 sequence (P14174 2-115 limits assumed): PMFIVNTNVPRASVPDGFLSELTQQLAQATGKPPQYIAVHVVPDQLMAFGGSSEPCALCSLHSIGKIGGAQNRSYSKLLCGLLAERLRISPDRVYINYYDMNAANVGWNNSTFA
Description: (§1) Peptides were dissolved and analyzed by MALDI-TOF-MS; ^{[a]}Peptides were synthesized with free amino-N-terminal and amidated C-terminal; ^{[b]}monoisotopic molar mass with an additional hydrogen [M + H]⁺; ^{[c]} App. Kds, are means (±SD) from three independent titration experiments which were performed in aqueous […], pH 7.4, containing 1% HFIP.
(§2) Fluorescence spectroscopy. Fluorescence spectroscopic titrations were performed as described^{28, 32}. Fluorescence spectra were recorded using a JASCO FP-6500 fluorescence spectrophotometer. […] Apparent KD values (app. KD) were calculated assuming a 1/1 binding model³².

[2] = target: T1, human macrophage migration-inhibitory …; assay: fluorescence spectroscopic titration, apparent Kd; Alexa-488-MIF titrated with ngm
Description: as §1, §2

[3] = target: T1, human macrophage migration-inhibitory …; assay: fluorescence spectroscopic titration, apparent Kd; Fluos-ngm titrated with MIF
Description: as §1, §2

[4] = target: T1, human macrophage migration-inhibitory …; assay: fluorescence spectroscopic binding assay
[5] = target: T1, human macrophage migration-inhibitory …; assay: cell-based or functional assay
[6] = target: T1, human macrophage migration-inhibitory …; assay: fluorescence spectroscopic titration
[7] = target: T1, human macrophage migration-inhibitory …; assay: fluorescence spectroscopic titration of Fluos-ngm-LD3 with increasing MIF [panel B]
Description: as §2

| Binder | Kd [2] | Kd [3] | Kd [4] | inhibitory capacity in the Dil-LDL foam cell assay [5] | further results |
| --- | --- | --- | --- | --- | --- |
| B1 | 44.8 nM | 36.4 nM |  |  | Kd [1]: 30 to 40 nM |
| B2 |  |  | 286 nM | ~80 % of full-length msR4M-L1 |  |
| B3 | 110 nM | 16.8 nM |  |  | Kd [6]: 22 nM |
| B4 |  |  | 324 nM | ~80 % of full-length msR4M-L1 |  |
| B5 |  |  | 51 nM | ~80 % of full-length msR4M-L1 |  |
| B6 |  |  | 215 nM | ~80 % of full-length msR4M-L1 |  |
| B7 |  |  | 80 nM | ~80 % of full-length msR4M-L1 |  |
| B8 | 246 nM | 36 nM |  |  | EC50 (read off the curve) [7]: ~30 nM; IC50 of inhibition of MIF-mediated monocyte migration (3D, single cell tracking) [5]: 18.4 nM; IC50 of inhibition of MIF-triggered Dil-oxLDL uptake (foam cell assay) [5]: 1.4 nM; Kd [6]: 33 nM |
